The values that follow come from patent publication US20160082105A1, “Antibody Buffering of a Ligand in Vivo” (ARROWSMITH TECHNOLOGIES CORPORATION, priority 2004, published 2016).

Series [1] in a line: Antibody buffering of lysozyme: total 14C-lysozyme in rat plasma. It counts as in vivo. The protocol: (§1) Rats (300 g Sprague-Dawley males, Zivic Laboratories, Zelionople, Pa.) were implanted with a jugular vein cannula. The rats were freely moving throughout the experiment and were allowed access to food and water. Samples were prepared for infusion consisting of 43 μg ^14C-lysozyme with or without 450 μg D1.3 antibody. The volume was brought to 1 ml using sterile normal saline and the sample was incubated at 37° C. prior to use. The sample was infused through the jugular cannula over 5 minutes using an HP infusion pump. Following the infusion, the cannula was flushed with 0.2 ml of heparinized saline (250 units/ml) to reduce the risk of clotting. […] Blood samples (0.5 ml) were withdrawn from the cannula at various timepoints. The blood was immediately centrifuged to separate out the plasma. Plasma (0.1 ml) was mixed with 5 ml scintillation fluid and counted. Another 0.1 ml was used in bound vs. free lysozyme experiments described herein. The cellular pellet was mixed with scintillation fluid and counted also.
Sprague-Dawley rats implanted with a jugular cannula were infused with 43 μg ^14C-lysozyme and either 450 μg or 900 μg of D1.3 antibody. The volume infused was brought up to 1 ml using sterile normal saline. The samples were prepared and infused and timepoints were taken and analyzed as described above. Bound vs. free separation analyses were not performed.
Sprague-Dawley rats implanted with a jugular cannula were infused with 450 μg of D1.3 antibody and either 43 μg or 430 μg of ^14C-lysozyme. The samples were prepared, infused, and timepoints were taken and analyzed as described above.
Two samples were prepared for infusion. The first sample, consisting of 450 μg D1.3 antibody diluted to 0.5 ml with sterile normal saline, was infused over 4 minutes using an HP infusion pump. The rat was allowed to move freely in its cage for 10 minutes to allow the antibody time to equilibrate within the circulation. Then the second sample, consisting of 43 μg ^14C-lysozyme made up to 0.5 ml using sterile normal saline, was infused over 4 minutes. The end of the second infusion was designated as time zero (0). Blood samples were taken and analyzed as described above.
To determine the pharmacokinetic profile of lysozyme using a radioactive method of lysozyme detection, ^14C-lysozyme was infused through a jugular cannula into the bloodstream of a rat. Lysozyme elimination was followed through blood sampling at various time intervals spanning 4 hours. The plasma was collected after centrifugation and subjected to scintillation counting. […] Each rat in these and in the following studies was used only once to limit the possibility of an immune response to either the lysozyme or the antibody.

Series [2] in a line: Antibody buffering of lysozyme: free lysozyme in plasma after Protein A-Sepharose separation. It counts as in vivo, rat. The following applies: lysozyme administered with D1.3, compared with lysozyme alone. The protocol: as §1
Following blood sample centrifugation to separate out the plasma, 0.1 ml of plasma was loaded onto a 1.5 ml Protein A-Sepharose mini-column. The column was washed with 3 ml of PBS in 0.5 ml increments followed by 3 ml of 100 mM citric acid in 0.5 ml increments. The PBS (free lysozyme) and citric acid (antibody-bound lysozyme) fractions were collected separately for each timepoint. […]

Take “lysozyme: hen egg lysozyme radioactively labeled with 14C, model protein ligand”: the “plasma β-half life of lysozyme” value came out at 16.4 min in series [1] (14C-lysozyme administered alone, jugular infusion); 42.8 min in series [1] (14C-lysozyme with equimolar D1.3); 61.3 min in series [1] (14C-lysozyme with two times the molar amount of D1.3). Further, the “radioactivity in the cellular pellet of blood” value in series [1] (14C-lysozyme alone or with D1.3) is “Little radioactivity”. The “total lysozyme level in plasma at later timepoints relative to equimolar group” value in series [1] (D1.3 with ten times the molar concentration of 14C-lysozyme) was “about twice as high”. Besides, the “total lysozyme concentration in plasma after sequential administration” value in series [1] (equimolar lysozyme infused ten minutes after D1.3) was “quickly equilibrated to a level very similar to that attained when the D1.3 and lysozyme were administered together”. For the same substance, the “free lysozyme pool in plasma” value in series [2] is “remained at a more constant level”.
